# Results: patent publication US20180051072A1 (RPEPTIDE, published 2018)
# B1: monoclonal antibody 7E7 (antibody, V domains shown)
# VH: EVKLVESGGGLVQPGSSQRLSCATSGFTFTDYYMSWVRQPPGKALEWLGFIRNKTKRYTTEYSASVKGRFTISRDNSQSILYLQMNTLRAEDSATYYCARDDPYARFAYWGQGTLVTVSA
# VL: DVVMTQTPLSLPVSLGDQASISCRSGQSLVHRNGNTYLHWYLQKPGQSPKLLIYKVSNRFSGVPDRFSGSGTGTDFTLKISRVEAEDLGVYFCSQSTHVPFTFGSGTKLEIK
# notes: Hybridoma monoclonal antibody raised against 1-42 rubredoxin fusion, detected with goat anti-mouse IgG (H+L); also called mAb 7E7; Beta Amyloid 7E7
# B2: monoclonal antibody 6C2 (antibody, V domains shown)
# VH: EVQLQQSGPELVKPGASVKISCKASGYSFTGYFLSWVKQSHGRSLEWIGRINPYNGHTFYNQKFKDKATLTVDKSSTTAHMELLSLTSEDSAVYYCAGSDSWGQGTTLTVSS
# VL: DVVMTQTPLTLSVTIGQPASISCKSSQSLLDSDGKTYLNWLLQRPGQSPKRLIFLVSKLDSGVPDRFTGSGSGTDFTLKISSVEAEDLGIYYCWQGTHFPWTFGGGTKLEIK
# notes: Hybridoma monoclonal antibody; also called mAb 6C2; Beta Amyloid 6C2
# Tests used:
# [1] = biological target: T1, Beta-Amyloid 1-42 monomer (human); assay: western blot, 7E7 as primary antibody (FIG. 20)
# T1 construct: also called Beta-Amyloid Monomer; Aβ monomer (1-42)
# T1 sequence (peptide, as listed by the source): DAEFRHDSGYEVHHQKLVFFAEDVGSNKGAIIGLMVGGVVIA
# Description: (§1) Western blots were performed to determine the extent of 7E7 binding to human Beta-Amyloid, specifically to determine if the antibody binds to Aβ aggregates, Aβ monomer, or both. This procedure applies to any Aβ peptide or peptide fragment which is composed of up to and including 40 or 42 amino acids. Before beginning the assay the vials of Aβ to be used were treated with 1,1,1,3,3,3-Hexafluoro-2-propanol (Aldrich Chemistry #105228-100G) (also known as HFIP) at a rate of 150 μL HFIP per 0.5 mg peptide). Once the HFIP was added to the lyophilized pellet the vials were sonicated for exactly one minute, or until the solution was clear. Once the dissolved peptide had taken on a clear appearance, the HFIP was gently evaporated out of each vial by passing Argon gas directly into the vial with the rubber stopper open just enough to allow the gasses and fumes to escape. When the inside of the vials was free of any remaining liquid, the remaining peptide is dissolved with 1% Ammonium Hydroxide at a rate which yields a peptide concentration of 1 mg/mL. 10 μL of this solution was mixed with 90μL of Milli-Q water, and from that 100 μL mixture 20 μL was added to 50 μL XT Sample Buffer (Bio-Rad #161-0791) and 130μL Milli-Q water for a final sample volume of 200 μL. No 2-Mercaptoethanol was added, and the samples were not heated. […] Instead the mixture was gently mixed by using a pipette. […]
# [2] = biological target: T2, Beta-Amyloid 1-40 monomer (human); assay: western blot, 7E7 as primary antibody (FIG. 20)
# T2 construct: also called Beta-Amyloid Monomer; Aβ monomer (1-40)
# T2 sequence (peptide, as listed by the source): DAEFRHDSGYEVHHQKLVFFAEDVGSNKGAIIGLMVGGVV
# Description: as §1
# Aβ(1-42) = biological target: T3, Aβ(1-42) (human); assay: ELISA, varying peptide amounts, 7E7 at 1:1,000 (FIG. 11)
# T3 construct: its state of aggregation is not specified; also called Beta-Amyloid 1-42; Aβ42
# Aβ(1-40) [3] = biological target: T4, Aβ(1-40) (human); assay: ELISA, peptide coated on plate
# T4 construct: Peptide as coated on ELISA plates; its state of aggregation is not specified; also called Aβ-1-40 peptide; Beta-Amyloid 1-40
# Aβ(1-40) [4] = biological target: T4, Aβ(1-40); assay: ELISA; reacts best with peptide that has not crossed through the isoelectric point
binder,measurement,setting,value
B1,binding result,[1],binds
same,binding result,[2],binds
same,binding result,Aβ(1-42),binds
same,binding result,Aβ(1-40) [3],binds
B2,binding result,Aβ(1-40) [4],binds
